Literature values, collected in PMC7364852.

Biological target: Spike RBD (SARS-CoV-2) (UniProt P0DTC2)

## SBP1 (from UniProt Q9BYF1)
  Kd: 47 nM
